± gives the standard deviation of the averaged measurements.

This data set relates to Saccharomyces cerevisiae. The data set can be described thus: protein stability index of tFT-peptide fusion (C-terminal peptide) (PSI (0-1 scale)); higher = more stable (slower turnover). Conditions: temperature: 30 C. On the procedure:
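MPS profiling in S. cerevisiae of the yeast C-terminome library: the last 12 aa of each annotated ORF are fused to the C-terminus of a sfGFP-mCherry timer, after a GGGS linker. Cells are FACS-sorted into 8 mCherry/sfGFP bins and deep-sequenced. PSI runs from 0 (unstable) to 1 (stable); wild type and das1Δ backgrounds, two technical replicates each.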

[1] abbreviates: genetic background: das1 deletion.

DEADSSMTEASV [SNF2 C-terminal 12 aa]: the protein stability index is 0.704 ± 0.033 under setting [1] and 0.634 ± 0.015 (genetic background: wild type).

As to DEDVDFLKVQVF [HAP4 C-terminal 12 aa], the protein stability index reads like this: under setting [1], 0.709 ± 0.041; (genetic background: wild type) 0.747 ± 0.064.

In the case of DEFQRLTNGIPY [STT4 C-terminal 12 aa], the protein stability index was determined as 0.695 ± 0.024 under setting [1] and 0.6923 ± 0.0061 (genetic background: wild type).

On to DEKLHSHNASPN [YNL198C C-terminal 12 aa], for which the protein stability index is 0.6788 ± 0.0032 under setting [1] and 0.697 ± 0.014 (genetic background: wild type).

For “DFIRGVAVFMHI [YMR272W-A C-terminal 12 aa]”, the protein stability index amounted to 0.691 ± 0.02 under setting [1] and 0.66587 ± 0.00052 (genetic background: wild type).

On to DHIPLLTEFKIL [NGL1 C-terminal 12 aa], for which the protein stability index came out at 0.721 ± 0.036 under setting [1] and 0.188 ± 0.02 (genetic background: wild type).

DIISFTSTLHGG [URM1 C-terminal 12 aa] returned a protein stability index under setting [1] of 0.727 ± 0.015 and a protein stability index (genetic background: wild type) of 0.705 ± 0.059.

Take DISDKIRRMQSR [MGP12 C-terminal 12 aa]: the protein stability index reads like this: under setting [1], 0.692 ± 0.0073; (genetic background: wild type) 0.777 ± 0.16.

Consider DKITAELILNKI [EMC2 C-terminal 12 aa], for which the protein stability index under setting [1] came to 0.6872 ± 0.0017 and the protein stability index (genetic background: wild type) came out at 0.6632 ± 0.0027.

With DKKKKKSKCVIL [RHO5 C-terminal 12 aa], the protein stability index under setting [1] is 0.753 ± 0.0091 and the protein stability index (genetic background: wild type) was determined as 0.74 ± 0.014.

Regarding DKKLARAGNNAI [CUE3 C-terminal 12 aa], the protein stability index was found to be 0.695 ± 0.0092 under setting [1] and 0.769 ± 0.0094 (genetic background: wild type).

Take DKPLYKRMFSTK [HXT6 C-terminal 12 aa]: the protein stability index was found to be 0.694 ± 0.022 under setting [1] and 0.7134 ± 0.0047 (genetic background: wild type).

Turning to “DKYPFLLYEVVR [YHR022C-A C-terminal 12 aa]”, the protein stability index was 0.5289 ± 0.0027 under setting [1] and 0.544 ± 0.027 (genetic background: wild type).

On to DLLNSVVVQRWA [SHP1 C-terminal 12 aa], for which the protein stability index reads like this: under setting [1], 0.697 ± 0.012; (genetic background: wild type) 0.702 ± 0.034.

Take DLMISCLMNQET [MTR3 C-terminal 12 aa]: the protein stability index reads like this: under setting [1], 0.712 ± 0.028; (genetic background: wild type) 0.6732 ± 0.0053.

In the case of DLTKKPKKITFD [DBP3 C-terminal 12 aa], the protein stability index under setting [1] amounted to 0.6923 ± 0.0048 and the protein stability index (genetic background: wild type) turned out to be 0.638 ± 0.018.

With DNDIYNTISEVR [RAD9 C-terminal 12 aa], the protein stability index is, setting by setting: under setting [1], 0.697 ± 0.022; (genetic background: wild type) 0.727 ± 0.024.

As for DPTTNGSIIKNE [IXR1 C-terminal 12 aa], the protein stability index was 0.6787 ± 0.0023 under setting [1] and 0.7014 ± 0.0049 (genetic background: wild type).

DRLKRRNNDYGF [MSO1 C-terminal 12 aa]: the protein stability index was found to be 0.695 ± 0.014 under setting [1] and 0.738 ± 0.054 (genetic background: wild type).

As for DSLENKIDSMTK [INH1 C-terminal 12 aa], the protein stability index reads like this: under setting [1], 0.715 ± 0.018; (genetic background: wild type) 0.714 ± 0.055.

DSTMKIWSPGYQ [STE4 C-terminal 12 aa]: the protein stability index stood at 0.7158 ± 0.00073 under setting [1] and 0.728 ± 0.011 (genetic background: wild type).

Take DSYKLMHSHIHP [IZH1 C-terminal 12 aa]: the protein stability index reads like this: under setting [1], 0.691 ± 0.01; (genetic background: wild type) 0.6721 ± 0.0056.

With DTSSTVEKKQKT [CCL1 C-terminal 12 aa], the protein stability index is, setting by setting: under setting [1], 0.686 ± 0.032; (genetic background: wild type) 0.692 ± 0.038.

Turning to DTVVRLIDNIVI [PAN6 C-terminal 12 aa], the protein stability index by setting is: under setting [1], 0.6896 ± 0.0041; (genetic background: wild type) 0.702 ± 0.07.

DVERVIRNAGRS [HSL1 C-terminal 12 aa] gave a protein stability index under setting [1] of 0.693 ± 0.0082 and a protein stability index (genetic background: wild type) of 0.674 ± 0.0079.

As to EALGKGGRGKRY [LSO1 C-terminal 12 aa], the protein stability index is, setting by setting: under setting [1], 0.671 ± 0.013; (genetic background: wild type) 0.678 ± 0.019.

As for EALTKASNVNKL [CIT3 C-terminal 12 aa], the protein stability index by setting is: under setting [1], 0.6972 ± 0.0031; (genetic background: wild type) 0.65 ± 0.041.

On to EAQSARNEKPLK [COS8 C-terminal 12 aa], for which the protein stability index by setting is: under setting [1], 0.685 ± 0.021; (genetic background: wild type) 0.691 ± 0.029.

As for EDRQAFFDSLKE [YGK1 C-terminal 12 aa], the protein stability index worked out at 0.724 ± 0.036 under setting [1] and 0.651 ± 0.025 (genetic background: wild type).

Turning to EDSKEYFEAANK [TSA1 C-terminal 12 aa], the protein stability index reads like this: under setting [1], 0.71 ± 0.021; (genetic background: wild type) 0.704 ± 0.0061.

On to EDTVNDKANFEG [STL1 C-terminal 12 aa], for which the protein stability index was 0.673 ± 0.015 under setting [1] and 0.655 ± 0.015 (genetic background: wild type).

Turning to EEFLTLLGRRSI [FOL2 C-terminal 12 aa], the protein stability index runs as follows: under setting [1], 0.708 ± 0.01; (genetic background: wild type) 0.723 ± 0.012.

For EEWYTSNHDSLA [PRP18 C-terminal 12 aa], the protein stability index is, setting by setting: under setting [1], 0.723 ± 0.013; (genetic background: wild type) 0.698 ± 0.014.

Take EFEKAQEINKKA [YRB1 C-terminal 12 aa]: the protein stability index under setting [1] worked out at 0.712 ± 0.017 and the protein stability index (genetic background: wild type) turned out to be 0.694 ± 0.02.

In the case of EGDIEPLKRILK [UBP2 C-terminal 12 aa], the protein stability index under setting [1] is 0.706 ± 0.012 and the protein stability index (genetic background: wild type) turned out to be 0.675 ± 0.088.

For EGRKVKKVSFAQ [LOC1 C-terminal 12 aa], the protein stability index reads like this: under setting [1], 0.7297 ± 0.0035; (genetic background: wild type) 0.7111 ± 0.0032.

Sequence EHYSDGDVCIII [DAL3 C-terminal 12 aa] showed a protein stability index under setting [1] of 0.68 ± 0.032 and a protein stability index (genetic background: wild type) of 0.68 ± 0.016.

In the case of EIASCSSSIYSE [DSE3 C-terminal 12 aa], the protein stability index reads like this: under setting [1], 0.696 ± 0.022; (genetic background: wild type) 0.711 ± 0.035.

EIIRVGPQESII [MRP49 C-terminal 12 aa]: the protein stability index under setting [1] turned out to be 0.723 ± 0.019 and the protein stability index (genetic background: wild type) is 0.749 ± 0.034.

As to EIRKIMMEEQPR [CHM7 C-terminal 12 aa], the protein stability index runs as follows: under setting [1], 0.6863 ± 0.0051; (genetic background: wild type) 0.66 ± 0.0089.

On to EKLPSKFTFKRE [ARN1 C-terminal 12 aa], for which the protein stability index reads like this: under setting [1], 0.696 ± 0.012; (genetic background: wild type) 0.6817 ± 0.0011.

ELERDITISREY [MIP1 C-terminal 12 aa]: the protein stability index reads like this: under setting [1], 0.701 ± 0.028; (genetic background: wild type) 0.698 ± 0.068.

The sequence ELIEDPRKMLLW [KGD2 C-terminal 12 aa] had a protein stability index under setting [1] of 0.694 ± 0.014 and a protein stability index (genetic background: wild type) of 0.69 ± 0.033.

As for ELLRLHNCHLPV [RMA1 C-terminal 12 aa], the protein stability index reads like this: under setting [1], 0.713 ± 0.018; (genetic background: wild type) 0.7 ± 0.0081.

As for ELPGVAFLSEKK [PGK1 C-terminal 12 aa], the protein stability index by setting is: under setting [1], 0.728 ± 0.016; (genetic background: wild type) 0.67 ± 0.0094.

With ELTKALDLLNSI [VTA1 C-terminal 12 aa], the protein stability index runs as follows: under setting [1], 0.691 ± 0.015; (genetic background: wild type) 0.694 ± 0.047.

For the sequence ENISSPLGKKSR [PSY4 C-terminal 12 aa], the protein stability index by setting is: under setting [1], 0.691 ± 0.0098; (genetic background: wild type) 0.706 ± 0.0047.

In the case of ENYYPSSLTLDI [JLP1 C-terminal 12 aa], the protein stability index turned out to be 0.72281 ± 0.00028 under setting [1] and 0.696 ± 0.062 (genetic background: wild type).

Consider EPTKKGFLVCRM [YMR320W C-terminal 12 aa], for which the protein stability index runs as follows: under setting [1], 0.771 ± 0.037; (genetic background: wild type) 0.702 ± 0.05.

The sequence EQIELKNFFVDV [YCR016W C-terminal 12 aa] came in with a protein stability index under setting [1] of 0.6881 ± 0.0062 and a protein stability index (genetic background: wild type) of 0.6997 ± 0.0015.

Values taken from the supplement of paper PMC10724198.
